Positions count from the first letter of the chain named. One block for each binder: values may come before it. Ends that are not written are not given here. * marks the point of attachment. Biotin = O=C1N[C@H]2[C@H](CS[C@H]2CCCCC(=O)*)N1; Ahx = NCCCCCC(=O)O
Experiments:
[1] = target: CD99 on the surface of Jurkat T cells (Homo sapiens (Jurkat, endogenous), UniProt P14209); test: flow cytometry on cells
[2] = target: T1, biotinylated CD99 peptide target epitope (Biotin-Ahx-AVVDGENDDPRPPNP) (Homo sapiens (synthetic peptide)); test: BLI
T1 chain: {Biotin-Ahx}-AVVDGENDDPRPPNP

Sequence of CD99 on the surface of Jurkat T cells (P14209 23-185): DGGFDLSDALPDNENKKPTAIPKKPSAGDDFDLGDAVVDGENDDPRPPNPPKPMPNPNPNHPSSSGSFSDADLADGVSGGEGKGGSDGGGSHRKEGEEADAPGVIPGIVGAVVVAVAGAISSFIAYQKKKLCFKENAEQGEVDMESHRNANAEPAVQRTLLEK

- binding result [1]: binds
- Kd [2]: 264 nM
B1: HuScFvMT99/3^BP (His6X) (scFv, V domains shown)
VH: QVQLQESGPGLVKPSETLSLTCTVSGGSIKDTYIHWVRQPPGKGLEWIGRIDPGNGNIKYDPKFQGRATISADTSKNQVSLNLDSVTAADTAIYYCARSGGYDFDYWGQGTLVTVSS
VL: VLMTQSPSSLSASVGDRVTITCRSSQSLVHSNGNTYLHWYQQKPGQSPKLLIYTVSNRFSGVPDRFSGSGSGTDFTLTISSLQAEDVAVYYCSQSTYVPYTFGPGTKVDIK

- Kd [2]: 135 nM
B2: HuScFvMT99/3^WT (His6X) (scFv, V domains shown)
VH: B1 VH with V24L, G27F, S28N, T87S, Q109K, T111S, L112T
VL: B1 VL with L2Q, Q46K, S47A, D64S, L77F, A84P, V87I, V89T, Y91F

- binding result [1]: binds
- Kd [2]: 395 nM
B3: HuScFvMT99/3^HY (His6X) (scFv, V domains shown)
VH: B1 VH
VL: B1 VL with L2Q, Q46K, S47A, D64S, L77F, A84P, V87I, V89T, Y91F

Reference: publication PMC11786912 (Computational and Structural Biotechnology Journal, 2025)
